For test [1], the target named is GFRα2/Fc fusion protein (R&D Systems). The test is described as follows: GFRα2 ELISA: GFRα2/Fc on anti-human Fc plate, Ret-AP detection; conditioned medium of transfected ARPE-19 cells.
For test [2] the target is unchanged. The test is described as follows: GFRα2 ELISA: GFRα2/Fc on anti-human Fc plate, Ret-AP detection; conditioned medium of transfected HEK293 cells. For orientation: ELISA stands for enzyme-linked immunosorbent assay.
Test [3] shares this target. The test is described as follows: GFRα2 ELISA: GFRα2/Fc on anti-human Fc plate, Ret-AP detection; conditioned medium of transfected CHO cells.
Test [4] shares this target. The test is described as follows: GFRα2 ELISA: GFRα2/Fc on anti-human Fc plate, Ret-AP detection; conditioned medium of transfected HiB5 cells.

The values below come from patent US20060239966A1.

B1: Neurturin secreted from cells transfected with the dpro-NTN construct (wt NTN signal peptide fused to human mature NTN, no pro-region) (ligand)
chain: ARLGARPCGLRELEVRVSELGLGYASDETVLFRYCAGACEAAARVYDLGLRRLRQRRRLRRERVRAQPCCRPTAYEDEVSFLDAHSRYHTVHELSARECACV
Regarding B1, the fold higher GFRα2 binding activity of conditioned medium (wt construct set to 1) in test [1] was 117 fold; in test [2], 90 fold; in test [3], 4.1 fold; in test [4] it was 7.5 fold.

B2: Neurturin secreted from cells transfected with the IgSP-NTN construct (mouse immunoglobulin heavy chain signal peptide fused to human mature NTN) (ligand)
chain: ARLGARPCGLRELEVRVSELGLGYASDETVLFRYCAGACEAAARVYDLGLRRLRQRRRLRRERVRAQPCCRPTAYEDEVSFLDAHSRYHTVHELSARECACV
For B2, the fold higher GFRα2 binding activity of conditioned medium (wt construct set to 1) in test [1] came out at 771 fold; in test [2], 278 fold; in test [3], 66 fold; in test [4], 162 fold.
